Numbered stars: 1 amine (or outer) side, 2 acyl side, 3 side chain; on linkers, the order of the positions; unused ones are H or OH. Bridge positions count the residues as written; N and C are the ends. Side chains are listed from the residue outwards. Ends that are not written are not given here. * marks the point of attachment. C20 diacid = O=C(O)CCCCCCCCCCCCCCCCCCC(=O)*; γGlu = O=C(O)[C@H](CCC(=O)[*:2])N[*:1]
T1: rat calcitonin receptor (rat, UniProt P32214 25-516)
T1 construct: whole, on cells; also called rCTR; rat calcitonin (a) receptor
T1 sequence (looked up): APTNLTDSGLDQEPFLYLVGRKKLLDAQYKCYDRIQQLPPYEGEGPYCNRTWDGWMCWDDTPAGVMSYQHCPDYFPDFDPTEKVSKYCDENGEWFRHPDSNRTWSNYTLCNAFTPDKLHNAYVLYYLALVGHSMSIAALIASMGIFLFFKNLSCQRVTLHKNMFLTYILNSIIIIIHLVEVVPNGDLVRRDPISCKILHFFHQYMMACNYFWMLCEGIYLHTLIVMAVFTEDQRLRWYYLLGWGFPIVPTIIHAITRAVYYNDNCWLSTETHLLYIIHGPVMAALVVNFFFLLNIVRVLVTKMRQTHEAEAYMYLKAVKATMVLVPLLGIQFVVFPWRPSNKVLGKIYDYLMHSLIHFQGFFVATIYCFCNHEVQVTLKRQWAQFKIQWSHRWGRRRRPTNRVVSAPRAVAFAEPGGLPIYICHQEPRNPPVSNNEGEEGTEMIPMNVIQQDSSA

T2: human calcitonin receptor (human, UniProt P30988 25-474)
T2 construct: whole, on cells; also called hCTR; hCT
T2 sequence (looked up): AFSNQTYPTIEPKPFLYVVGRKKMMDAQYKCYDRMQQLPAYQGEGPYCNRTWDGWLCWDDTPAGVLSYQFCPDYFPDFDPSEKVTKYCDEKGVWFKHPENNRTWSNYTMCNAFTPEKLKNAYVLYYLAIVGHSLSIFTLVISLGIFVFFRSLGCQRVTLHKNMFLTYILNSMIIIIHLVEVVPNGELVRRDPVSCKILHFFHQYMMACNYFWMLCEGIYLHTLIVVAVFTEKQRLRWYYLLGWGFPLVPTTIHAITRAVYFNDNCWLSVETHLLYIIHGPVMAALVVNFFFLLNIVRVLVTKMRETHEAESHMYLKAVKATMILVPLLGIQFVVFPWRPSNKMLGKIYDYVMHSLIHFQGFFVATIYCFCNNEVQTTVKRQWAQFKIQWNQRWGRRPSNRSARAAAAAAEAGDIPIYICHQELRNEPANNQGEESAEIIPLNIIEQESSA

T3: rat amylin receptor (rat calcitonin receptor + rat RAMP 3) (rat, UniProt P32214 25-516; Q9JJ73 23-147)
T3 construct: whole, on cells; also called rAmylin-R; rat amylin 3(a) receptor
T3 sequence (looked up) 1: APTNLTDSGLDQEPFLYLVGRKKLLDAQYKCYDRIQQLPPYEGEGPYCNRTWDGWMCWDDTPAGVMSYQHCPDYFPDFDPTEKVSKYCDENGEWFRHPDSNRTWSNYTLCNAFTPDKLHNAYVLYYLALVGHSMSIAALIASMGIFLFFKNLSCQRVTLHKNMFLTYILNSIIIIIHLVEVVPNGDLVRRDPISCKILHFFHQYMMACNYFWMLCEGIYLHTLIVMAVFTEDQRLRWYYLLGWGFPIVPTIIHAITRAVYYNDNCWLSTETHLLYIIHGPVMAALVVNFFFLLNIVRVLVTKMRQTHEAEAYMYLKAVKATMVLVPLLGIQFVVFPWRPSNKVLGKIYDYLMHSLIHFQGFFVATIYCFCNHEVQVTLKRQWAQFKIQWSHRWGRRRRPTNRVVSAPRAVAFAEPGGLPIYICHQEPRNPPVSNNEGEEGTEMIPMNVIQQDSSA
T3 sequence (looked up) 2: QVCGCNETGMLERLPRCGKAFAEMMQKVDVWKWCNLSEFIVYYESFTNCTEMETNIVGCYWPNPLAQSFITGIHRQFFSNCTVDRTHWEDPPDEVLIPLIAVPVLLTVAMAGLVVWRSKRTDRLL


What was measured:
rat calcitonin receptor [1] = molecular target: T1, rat calcitonin receptor; assay: ratio of binding IC50s: rat calcitonin receptor over rat amylin receptor (reference)
[2] = molecular target: T2, human calcitonin receptor; assay: ratio of binding IC50s: human calcitonin receptor over human amylin receptor (reference)
Procedure, shortened: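 Competition binding by SPA with cell membranes (35 ng/μL) and SPA beads in 50 mM Hepes pH 7.4 with 1 mM CaCl2, 5 mM MgCl2, 0.1% OA and 0.02% Tween20. Incubated 120 min at 25 °C with shaking, then counted.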

rat calcitonin receptor [3] = molecular target: T1, rat calcitonin receptor; assay: SPA competition with 125I-calcitonin, membranes of BHK cells with rat calcitonin receptor (Assay VIII)
[4] = molecular target: T3, rat amylin receptor (rat calcitonin …); assay: SPA competition with 125I-rat amylin, membranes of BHK cells with rat calcitonin receptor + rat RAMP3 (Assay VI)

Ratio rCT/rAmylin binding (rat calcitonin receptor [1])	Ratio hCT/hAmylin binding [2]	IC50 (rat calcitonin receptor [3])	IC50 [4]	Binder
137	118	205 nM	1.5 nM	K([γGlu-C20 diacid])CNTATCATQRLANFLRHSSPNFGAIPSSTNVGHNTY-NH2 (disulfide 2-7; N-terminus assumed; SMILES CC[C@H](C)[C@H](NC(=O)[C@H](C)NC(=O)CNC(=O)[C@H](Cc1ccccc1)NC(=O)[C@H](CC(N)=O)NC(=O)[C@@H]1CCCN1C(=O)[C@H](CO)NC(=O)[C@H](CO)NC(=O)[C@H](Cc1c[nH]cn1)NC(=O)[C@H](CCCNC(=N)N)NC(=O)[C@H](CC(C)C)NC(=O)[C@H](Cc1ccccc1)NC(=O)[C@H](CC(N)=O)NC(=O)[C@H](C)NC(=O)[C@H](CC(C)C)NC(=O)[C@H](CCCNC(=N)N)NC(=O)[C@H](CCC(N)=O)NC(=O)[C@@H](NC(=O)[C@H](C)NC(=O)[C@@H]1CSSC[C@H](NC(=O)[C@@H](N)CCCCNC(=O)CC[C@H](NC(=O)CCCCCCCCCCCCCCCCCCC(=O)O)C(=O)O)C(=O)N[C@@H](CC(N)=O)C(=O)N[C@@H]([C@@H](C)O)C(=O)N[C@@H](C)C(=O)N[C@@H]([C@@H](C)O)C(=O)N1)[C@@H](C)O)C(=O)N1CCC[C@H]1C(=O)N[C@@H](CO)C(=O)N[C@@H](CO)C(=O)N[C@H](C(=O)N[C@@H](CC(N)=O)C(=O)N[C@H](C(=O)NCC(=O)N[C@@H](Cc1c[nH]cn1)C(=O)N[C@@H](CC(N)=O)C(=O)N[C@H](C(=O)N[C@@H](Cc1ccc(O)cc1)C(N)=O)[C@@H](C)O)C(C)C)[C@@H](C)O, synthetic analogue of human amylin; also called compound 77) [N^ε1-[(4S)-4-carboxy-4-(19-carboxynonadecanoylamino)butanoyl]-[Arg17,Pro21,Pro27,His34]-h-amylin]
42.9	87.2	61.1 nM	1.42 nM	K([γGlu-C20 diacid])CNTATCATQRLAHFLRHSSPNFGAIPSSTNVGHNTY-NH2 (disulfide 2-7; N-terminus assumed; SMILES CC[C@H](C)[C@H](NC(=O)[C@H](C)NC(=O)CNC(=O)[C@H](Cc1ccccc1)NC(=O)[C@H](CC(N)=O)NC(=O)[C@@H]1CCCN1C(=O)[C@H](CO)NC(=O)[C@H](CO)NC(=O)[C@H](Cc1c[nH]cn1)NC(=O)[C@H](CCCNC(=N)N)NC(=O)[C@H](CC(C)C)NC(=O)[C@H](Cc1ccccc1)NC(=O)[C@H](Cc1c[nH]cn1)NC(=O)[C@H](C)NC(=O)[C@H](CC(C)C)NC(=O)[C@H](CCCNC(=N)N)NC(=O)[C@H](CCC(N)=O)NC(=O)[C@@H](NC(=O)[C@H](C)NC(=O)[C@@H]1CSSC[C@H](NC(=O)[C@@H](N)CCCCNC(=O)CC[C@H](NC(=O)CCCCCCCCCCCCCCCCCCC(=O)O)C(=O)O)C(=O)N[C@@H](CC(N)=O)C(=O)N[C@@H]([C@@H](C)O)C(=O)N[C@@H](C)C(=O)N[C@@H]([C@@H](C)O)C(=O)N1)[C@@H](C)O)C(=O)N1CCC[C@H]1C(=O)N[C@@H](CO)C(=O)N[C@@H](CO)C(=O)N[C@H](C(=O)N[C@@H](CC(N)=O)C(=O)N[C@H](C(=O)NCC(=O)N[C@@H](Cc1c[nH]cn1)C(=O)N[C@@H](CC(N)=O)C(=O)N[C@H](C(=O)N[C@@H](Cc1ccc(O)cc1)C(N)=O)[C@@H](C)O)C(C)C)[C@@H](C)O, synthetic analogue of human amylin; also called compound 81)
46.5	91.8	146 nM	3.14 nM	K([γGlu-C20 diacid])CNTATCATQRLAHFLRHSSPNFGAIPSSTNVGRNTY-NH2 (disulfide 2-7; N-terminus assumed; SMILES CC[C@H](C)[C@H](NC(=O)[C@H](C)NC(=O)CNC(=O)[C@H](Cc1ccccc1)NC(=O)[C@H](CC(N)=O)NC(=O)[C@@H]1CCCN1C(=O)[C@H](CO)NC(=O)[C@H](CO)NC(=O)[C@H](Cc1c[nH]cn1)NC(=O)[C@H](CCCNC(=N)N)NC(=O)[C@H](CC(C)C)NC(=O)[C@H](Cc1ccccc1)NC(=O)[C@H](Cc1c[nH]cn1)NC(=O)[C@H](C)NC(=O)[C@H](CC(C)C)NC(=O)[C@H](CCCNC(=N)N)NC(=O)[C@H](CCC(N)=O)NC(=O)[C@@H](NC(=O)[C@H](C)NC(=O)[C@@H]1CSSC[C@H](NC(=O)[C@@H](N)CCCCNC(=O)CC[C@H](NC(=O)CCCCCCCCCCCCCCCCCCC(=O)O)C(=O)O)C(=O)N[C@@H](CC(N)=O)C(=O)N[C@@H]([C@@H](C)O)C(=O)N[C@@H](C)C(=O)N[C@@H]([C@@H](C)O)C(=O)N1)[C@@H](C)O)C(=O)N1CCC[C@H]1C(=O)N[C@@H](CO)C(=O)N[C@@H](CO)C(=O)N[C@H](C(=O)N[C@@H](CC(N)=O)C(=O)N[C@H](C(=O)NCC(=O)N[C@@H](CCCNC(=N)N)C(=O)N[C@@H](CC(N)=O)C(=O)N[C@H](C(=O)N[C@@H](Cc1ccc(O)cc1)C(N)=O)[C@@H](C)O)C(C)C)[C@@H](C)O, synthetic analogue of human amylin; also called compound 85)
119	37.5	62 nM	0.523 nM	K([γGlu-C20 diacid])CNTATCATQRLAEFLRHSSPNFGAIPSSTNVGSRTY-NH2 (disulfide 2-7; N-terminus assumed; SMILES CC[C@H](C)[C@H](NC(=O)[C@H](C)NC(=O)CNC(=O)[C@H](Cc1ccccc1)NC(=O)[C@H](CC(N)=O)NC(=O)[C@@H]1CCCN1C(=O)[C@H](CO)NC(=O)[C@H](CO)NC(=O)[C@H](Cc1c[nH]cn1)NC(=O)[C@H](CCCNC(=N)N)NC(=O)[C@H](CC(C)C)NC(=O)[C@H](Cc1ccccc1)NC(=O)[C@H](CCC(=O)O)NC(=O)[C@H](C)NC(=O)[C@H](CC(C)C)NC(=O)[C@H](CCCNC(=N)N)NC(=O)[C@H](CCC(N)=O)NC(=O)[C@@H](NC(=O)[C@H](C)NC(=O)[C@@H]1CSSC[C@H](NC(=O)[C@@H](N)CCCCNC(=O)CC[C@H](NC(=O)CCCCCCCCCCCCCCCCCCC(=O)O)C(=O)O)C(=O)N[C@@H](CC(N)=O)C(=O)N[C@@H]([C@@H](C)O)C(=O)N[C@@H](C)C(=O)N[C@@H]([C@@H](C)O)C(=O)N1)[C@@H](C)O)C(=O)N1CCC[C@H]1C(=O)N[C@@H](CO)C(=O)N[C@@H](CO)C(=O)N[C@H](C(=O)N[C@@H](CC(N)=O)C(=O)N[C@H](C(=O)NCC(=O)N[C@@H](CO)C(=O)N[C@@H](CCCNC(=N)N)C(=O)N[C@H](C(=O)N[C@@H](Cc1ccc(O)cc1)C(N)=O)[C@@H](C)O)C(C)C)[C@@H](C)O, synthetic analogue of human amylin; also called compound 51)
122	45.2	26.3 nM	0.215 nM	K([γGlu-C20 diacid])CNTATCATQRLANFLRHSSPNFGAIPSSTNVGSHTY-NH2 (disulfide 2-7; N-terminus assumed; SMILES CC[C@H](C)[C@H](NC(=O)[C@H](C)NC(=O)CNC(=O)[C@H](Cc1ccccc1)NC(=O)[C@H](CC(N)=O)NC(=O)[C@@H]1CCCN1C(=O)[C@H](CO)NC(=O)[C@H](CO)NC(=O)[C@H](Cc1c[nH]cn1)NC(=O)[C@H](CCCNC(=N)N)NC(=O)[C@H](CC(C)C)NC(=O)[C@H](Cc1ccccc1)NC(=O)[C@H](CC(N)=O)NC(=O)[C@H](C)NC(=O)[C@H](CC(C)C)NC(=O)[C@H](CCCNC(=N)N)NC(=O)[C@H](CCC(N)=O)NC(=O)[C@@H](NC(=O)[C@H](C)NC(=O)[C@@H]1CSSC[C@H](NC(=O)[C@@H](N)CCCCNC(=O)CC[C@H](NC(=O)CCCCCCCCCCCCCCCCCCC(=O)O)C(=O)O)C(=O)N[C@@H](CC(N)=O)C(=O)N[C@@H]([C@@H](C)O)C(=O)N[C@@H](C)C(=O)N[C@@H]([C@@H](C)O)C(=O)N1)[C@@H](C)O)C(=O)N1CCC[C@H]1C(=O)N[C@@H](CO)C(=O)N[C@@H](CO)C(=O)N[C@H](C(=O)N[C@@H](CC(N)=O)C(=O)N[C@H](C(=O)NCC(=O)N[C@@H](CO)C(=O)N[C@@H](Cc1c[nH]cn1)C(=O)N[C@H](C(=O)N[C@@H](Cc1ccc(O)cc1)C(N)=O)[C@@H](C)O)C(C)C)[C@@H](C)O, synthetic analogue of human amylin; also called compound 60) [N^ε1-[(4S)-4-carboxy-4-(19-carboxynonadecanoylamino)butanoyl]-[Arg17,Pro21,Pro27,His35]-h-amylin]
